Results published in patent US20140178332A1 (published 2014).
Read-outs that look alike come from different tables or passages of the source.

Columns and labels:
[1] = target: T1, recombinant purified cyno IL-12 p70 (cynomolgus monkey); assay: cell-based or functional assay
T1 chain 1: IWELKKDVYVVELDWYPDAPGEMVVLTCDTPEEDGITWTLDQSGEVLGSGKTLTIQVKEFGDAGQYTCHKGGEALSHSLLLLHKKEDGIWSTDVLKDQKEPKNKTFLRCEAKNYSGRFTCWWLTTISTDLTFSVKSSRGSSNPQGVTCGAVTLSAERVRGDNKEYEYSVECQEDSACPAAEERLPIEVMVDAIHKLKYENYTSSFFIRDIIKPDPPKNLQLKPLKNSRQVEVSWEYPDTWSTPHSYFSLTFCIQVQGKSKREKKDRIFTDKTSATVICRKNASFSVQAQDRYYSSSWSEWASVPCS
T1 chain 2: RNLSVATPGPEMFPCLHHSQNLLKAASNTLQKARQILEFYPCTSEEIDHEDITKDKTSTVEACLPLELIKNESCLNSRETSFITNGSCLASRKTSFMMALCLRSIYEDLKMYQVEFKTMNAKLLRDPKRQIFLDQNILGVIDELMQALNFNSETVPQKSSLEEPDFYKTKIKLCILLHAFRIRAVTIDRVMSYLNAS

[2] = target: T2, recombinant purified human IL-12 p70 (human, UniProt P29459 23-219); assay: cell-based or functional assay
T2 sequence 1: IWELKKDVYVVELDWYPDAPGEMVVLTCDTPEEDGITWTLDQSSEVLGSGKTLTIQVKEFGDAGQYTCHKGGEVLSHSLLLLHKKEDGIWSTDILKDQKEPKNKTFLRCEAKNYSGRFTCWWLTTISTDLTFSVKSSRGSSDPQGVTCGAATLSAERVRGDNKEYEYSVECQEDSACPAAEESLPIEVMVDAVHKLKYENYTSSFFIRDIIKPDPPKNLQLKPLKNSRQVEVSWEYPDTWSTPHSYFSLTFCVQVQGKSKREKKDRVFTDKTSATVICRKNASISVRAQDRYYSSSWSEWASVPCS
T2 sequence 2: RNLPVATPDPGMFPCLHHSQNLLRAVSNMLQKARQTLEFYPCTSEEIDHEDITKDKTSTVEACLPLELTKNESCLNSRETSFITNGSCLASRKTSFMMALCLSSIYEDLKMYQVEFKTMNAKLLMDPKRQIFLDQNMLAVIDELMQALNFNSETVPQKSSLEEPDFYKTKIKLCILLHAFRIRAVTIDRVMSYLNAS

[3] = target: T2, recombinant purified human IL-12 p70; assay: SPR (BIAcore) as in Example 1.1.B, human IL-12p70
Description: Approximately 5000 RU of goat anti-mouse IgG, (Fcγ), fragment specific polyclonal antibody (Pierce Biotechnology Inc, Rockford, Ill.) diluted in 10 mM sodium acetate (pH 4.5) was directly immobilized across a CM5 research grade biosensor chip using a standard amine coupling kit according to manufacturer's instructions and procedures at 25 μg/ml. Unreacted moieties on the biosensor surface were blocked with ethanolamine. Modified carboxymethyl dextran surface in flowcell 2 and 4 was used as a reaction surface. Unmodified carboxymethyl dextran without goat anti-mouse IgG in flow cell 1 and 3 was used as the reference surface. For kinetic analysis, rate equations derived from the 1:1 Langmuir binding model were fitted simultaneously to association and dissociation phases of all eight injections (using global fit analysis) with the use of Biaevaluation 4.0.1 software. Purified antibodies were diluted in HEPES-buffered saline for capture across goat anti-mouse IgG specific reaction surfaces. Mouse antibodies to be captured as a ligand (25 μg/ml) were injected over reaction matrices at a flow rate of 5 μl/min. The association and dissociation rate constants, kₒₙ (unit M⁻¹ s⁻¹) and koff (unit s⁻¹) were determined under a continuous flow rate of 25 μl/min. Rate constants were derived by making kinetic binding measurements at ten different antigen concentrations ranging from 10-200 nM. The equilibrium dissociation constant (unit M) of the reaction between mouse antibodies and recombinant purified human IL-12 p70 or recombinant purified human IL-12 p40 was then calculated from the kinetic rate constants by the following formula: KD=koff/kₒₙ. Binding is recorded as a function of time and kinetic rate constants are calculated. In this assay, on-rates as fast as 10⁶M⁻¹ s⁻¹ and off-rates as slow as 10⁻⁶ can be measured. […]

[4] = target: T2, recombinant purified human IL-12 p70; assay: cell-based or functional assay; remark: listed apart in the source
[5] = target: T2, recombinant purified human IL-12 p70; assay: SPR (Biacore) according to Example 1.1.B
Description: The BIACORE assay (Biacore, Inc, Piscataway, N.J.) determines the affinity of antibodies with kinetic measurements of on-, off-rate constants. Binding of antibodies to recombinant purified human IL-12 p70 or recombinant purified human IL-12 p40 were determined by surface plasmon resonance-based measurements with a Biacore® 3000 instrument (Biacore® AB, Uppsala, Sweden) using running HBS-EP (10 mM HEPES [pH 7.4], 150 mM NaCl, 3 mM EDTA, and 0.005% surfactant P20) at 25° C. All chemicals were obtained from Biacore® AB (Uppsala, Sweden) or otherwise from a different source as described in the text. Approximately 5000 RU of goat anti-mouse IgG, (Fcγ), fragment specific polyclonal antibody (Pierce Biotechnology Inc, Rockford, Ill.) diluted in 10 mM sodium acetate (pH 4.5) was directly immobilized across a CM5 research grade biosensor chip using a standard amine coupling kit according to manufacturer's instructions and procedures at 25 μg/ml. Unreacted moieties on the biosensor surface were blocked with ethanolamine. Modified carboxymethyl dextran surface in flowcell 2 and 4 was used as a reaction surface. Unmodified carboxymethyl dextran without goat anti-mouse IgG in flow cell 1 and 3 was used as the reference surface. For kinetic analysis, rate equations derived from the 1:1 Langmuir binding model were fitted simultaneously to association and dissociation phases of all eight injections (using global fit analysis) with the use of Biaevaluation 4.0.1 software. Purified antibodies were diluted in HEPES-buffered saline for capture across goat anti-mouse IgG specific reaction surfaces. Mouse antibodies to be captured as a ligand (25 μg/ml) were injected over reaction matrices at a flow rate of 5 μl/min. The association and dissociation rate constants, kₒₙ (unit M⁻¹ s⁻¹) and koff (unit s⁻¹) were determined under a continuous flow rate of 25 μl/min. Rate constants were derived by making kinetic binding measurements at ten different antigen concentrations ranging from 10-200 nM. The equilibrium dissociation constant (unit M) of the reaction between mouse antibodies and recombinant purified human IL-12 p70 or recombinant purified human IL-12 p40 was then calculated from the kinetic rate constants by the following formula: KD=koff/kₒₙ. Binding is recorded as a function of time and kinetic rate constants are calculated.

[6] = target: T2, recombinant purified human IL-12 p70; assay: cell-based or functional assay; remark: listed apart in the source

B1: chimeric anti-human IL-12p40 antibody 3G7-Chim (antibody, human IgG1, kappa, L234A L235A, V domains shown)
VH: QVQLQQSGAELMKPGASVKISCKATGYTFNDYWIEWVKQRPGHGLEWIGGFSHGSGSTNYNEKFKGKATFTADSSSNTAYMQLSSLTSEDSAVYYCARRRFRGMDYWGQGTSVTVSS
VL: SIVMTQTPKFLLVSAGDRVTITCKASQSVSNDVAWYQQKPGQSPKLLIYYASNRYTGVPDRFTGSGYGTDFTFTITTVQAEDLAVYFCQQDYSSPWSFGGGTKLEIKR
Average IC50 (nM) Cyno IL-12, PHA blast IFN-γ assay [1]: 0.32 nM | Average IC50 (nM) Human IL-12, PHA blast IFN-γ assay [2]: 0.12 nM

B2: chimeric antibody 3G7/1D4-Chim (chimeric 3G7 heavy chain with 1D4 chimeric light chain) (antibody, human IgG1, kappa, L234A L235A, V domains shown)
VH: QVQLQQSGAELMKPGASVKISCKATGYTFNDYWIEWVKQRPGHGLEWIGGFSHGSGSTNYNEKFKGKATFTADSSSNTAYMQLSSLTSEDSAVYYCARRRFRGMDYWGQGTSVTVSS
VL: SVVMTQTPKFLLVSAGDRVTITCKASQSVSNDVAWYQQKPGQSPKLLIYYASNRYTGVPDRFTGSGYGTDFTFIISTVRAEDLAVYFCQQDYNSPWTFGGGTKLEIKR
Average IC50 (nM) Cyno IL-12, PHA blast IFN-γ assay [1]: 0.29 nM | Average IC50 (nM) Human IL-12, PHA blast IFN-γ assay [2]: 0.11 nM

B3: anti-IL-12p40 humanized antibody 3G7.3 (antibody, human IgG1, kappa, L234A L235A, V domains shown)
VH: EVQLVQSGAEVKKPGASVKVSCKATGYTFNDYWIEWVRQAPGQGLEWMGGFSHGSGSTNYNEKFKGRVTMTADSSTNTAYMELRSLRSDDTAVYYCARRRFRGMDYWGQGTTVTVSS
VL: EIVMTQSPATLSVSPGERATLSCKASQSVSNDVAWYQQKPGQAPRLLIYYASNRYTGVPDRFSGSGSGTEFTLTISSLQSEDFAVYYCQQDYSSPWSFGGGTKVEIKR
notes: Back-mutated CDR-grafted antibody; COS cells
Kd [3]: 0.2 nM | koff [3]: 0.00015 s⁻¹ | kon [3]: 780000 M⁻¹ s⁻¹ | Av. IC50 (nM) huIL-12, PHA blast assay [4]: 0.42 nM

B4: chimeric anti-human IL-12p40 antibody 8E1-Chim (antibody, human IgG1, kappa, L234A L235A, V domains shown)
VH: EVKLVESGGGLVQPGGSRKLSCAASGFTFSDYGMVWVRQAPGKGLEWVASISSGSSNIYYADTVKGRFTISRDDPNNTLFLQMRSLRSEDTAMYYCARNPYWGQGTTLTVSS
VL: DIVMTQSQKFMSTSVGDRVSVTCKASQNVGTNVAWYQQKPGQSPKGLIYSASHRYSGVPDRFAGSGSGTDFTLTISNVQSEDLAEYFCQQYNSYPLTFGGGTKLELKR
Average IC50 (nM) Cyno IL-12, PHA blast IFN-γ assay [1]: 0.15 nM | Average IC50 (nM) Human IL-12, PHA blast IFN-γ assay [2]: 0.17 nM

B5: anti-IL-12p40 humanized antibody 8E1.3 (antibody, human IgG1, kappa, L234A L235A, V domains shown)
VH: EVKLVESGGGLVQPGGSLRLSCAASGFTFSDYGMVWVRQAPGKGLEWVASISSGSSNIYYADTVKGRFTISRDDSKNTLYLQMNSLKTEDTAVYYCARNPYWGQGTTVTVSS
VL: DIVMTQSPSSLSASVGDRVTITCKASQNVGTNVAWYQQKPEKAPKSLIYSASHRYSGVPSRFSGSGSGTDFTLTISSLQPEDFATYYCQQYNSYPLTFGGGTKVEIKR
notes: as for B3
Kd [3]: 0.76 nM | koff [3]: 0.001 s⁻¹ | kon [3]: 1.3e+06 M⁻¹ s⁻¹ | Av. IC50 (nM) huIL-12, PHA blast assay [4]: 10 nM

B6: anti-IL-12p40 humanized antibody 1D4.6 (antibody, human IgG1, kappa, L234A L235A, V domains shown)
VH: EVTLRESGPALVKPTQTLTLTCTFSGFSLSKSVMGVSWIRQPPGKALEWLAHIYWDDDKYYNPSLKSRLTISKDTSKNQVVLTMTNMDPVDTATYYCTRRGIRSAMDYWGQGTTVTVSS
VL: DVVMTQSPDSLAVSLGERATINCKASQSVSNDVAWYQQKPGQPPKLLIYYASNRYTGVPDRFSGSGYGTDFTLTISSLQAEDVAVYYCQQDYNSPWTFGGGTKVEIKR
notes: COS cells
Kd [3]: < 0.01 nM | koff [3]: < 1e-05 s⁻¹ | kon [3]: 480000 M⁻¹ s⁻¹ | Av. IC50 (nM) huIL-12, PHA blast assay [4]: 0.15 nM

B7: anti-IL-12p40 humanized antibody 1D4.8 (antibody, human IgG1, kappa, L234A L235A, V domains shown)
VH: EVTLRESGPALVKPTQTLTLTCTFSGFSLRKSVMGVSWIRQPPGKALEWLAHIYWDDDKYYNPSLKSRLTISKDTSKNQVVLTMTNMDPVDTATYYCTRRGIRSAMDYWGQGTTVTVSS
VL: DIVMTQSPDSLAVSLGERATINCKASQSVSNDVAWYQQKPGQPPKLLIYYASNRYTGVPDRFSGSGSGTDFTLTISSLQAEDVAVYYCQQDYNSPWTFGGGTKVEIKR
notes: as for B3
Kd [3]: < 0.01 nM | koff [3]: < 1e-05 s⁻¹ | kon [3]: 120000 M⁻¹ s⁻¹ | Av. IC50 (nM) huIL-12, PHA blast assay [4]: 0.095 nM

B8: anti-IL-12p40 humanized antibody 1A6.9 (antibody, human IgG1, kappa, L234A L235A, V domains shown)
VH: EVTLRESGPALVKPTQTLTLTCTFSGFSLSTSGMGVSWIRQPPGKALEWLAHIWWDGDNYYNPSLKSRLTISKDTSKNQVVLTMTNMDPVDTATYYCARRTRVNYAMDYWGQGTTVTVSS
VL: SVVMTQSPDSLAVSLGERATINCKASQSVSNDVAWFQQKPGQPPKLLIYYASNRYTGVPDRFSGSGYGTDFTLTISSLQAEDVAVYYCQQDYNSPWTFGGGTKVEIKR
notes: as for B3
Kd [3]: < 0.01 nM | koff [3]: < 1e-05 s⁻¹ | kon [3]: 350000 M⁻¹ s⁻¹ | Av. IC50 (nM) huIL-12, PHA blast assay [4]: 0.15 nM

B9: additional humanized anti-IL-12 antibody 1A6.10 (antibody, human IgG1, V domains shown)
VH: EVTLRESGPGLVKPTQTLTLTCTLYGFSLSTSGMGVSWIRQPPGKGLEWLAHIWWDGDNYYNPSLKSQLTISKDTSKNQVVLKLTSVDPVDTATYYCARRTRVNYAMDYWGQGTLVTVSS
VL: DIQMTQSPSSLSASVGDRVTITCKASQSVSNDVAWYQQKPGKAPKLLIYYASNRYTGVPDRFSGSGYGTDFTFTISSLQPEDIATYYCQQDYNSPWTFGGGTKVEIKR
notes: Only variable domains tied to it
Kd [5]: 0.024 nM | koff [5]: 7.6e-06 s⁻¹ | kon [5]: 320000 M⁻¹ s⁻¹ | Av. IC50 (nM) huIL-12, PHA blast assay [6]: 0.15 nM

B10: additional humanized anti-IL-12 antibody 1A6.12 (antibody, human IgG1, V domains shown)
VH: EVTLRESGPGLVKPTQTLTLTCTLYGFSLSTSGMGVSWIRQPPGKGLEWLAHIWWDGDNYYNPSLKSQLTISKDTSKNQVVLKLTSVDPVDTATYYCARRTRVNYAMDYWGQGTLVTVSS
VL: DIQMTQSPSSLSASVGDRVTITCKASQSVSNDVAWFQQKPGKAPKLLIYYASNRYTGVPDRFSGSGYGTDFTFTISSLQPEDIATYYCQQDYNSPWTFGGGTKVEIKR
notes: as for B9
Kd [5]: 0.4 nM | koff [5]: 0.0003 s⁻¹ | kon [5]: 740000 M⁻¹ s⁻¹ | Av. IC50 (nM) huIL-12, PHA blast assay [6]: 0.088 nM
